What follows are binders tested against T1, human mature dimer BMP9 recombinant protein (manufactured by R&D systems, Cat#3209-BP) (human, UniProt Q9UK05 320-429) (assay: SPR (Biacore T100), antibody captured on anti-human IgG, human BMP9 (R&D 3209-BP) as analyte, 5 concentrations from 1 nM).
T1 construct: Bought protein; also called human BMP9; human BMP9 recombinant protein (manufactured by R&D systems)
T1 sequence: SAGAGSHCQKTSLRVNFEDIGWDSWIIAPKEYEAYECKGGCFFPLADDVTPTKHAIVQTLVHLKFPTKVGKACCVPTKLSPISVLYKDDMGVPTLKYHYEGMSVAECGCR
Protocol: For the purpose of comparing binding activity to human BMP9 between c10D5-2-3 antibody and 22 types of 10D5-2-3 antibody-humanized antibodies obtained in Example 22-7, binding activity to human BMP9 recombinant protein (manufactured by R&D systems) was measured by surface plasmon resonance (SPR) using a BiacoreT100 instrument (manufactured by GE Healthcare bioscience).
Anti-human IgG antibody was immobilized onto a CM5 sensor chip (manufactured by GE Healthcare bioscience) using a Human Antibody Capture Kit (manufactured by GE Healthcare bioscience) in accordance with the accompanying protocol. 0.4 μg/mL of c10D5-2-3 antibody or each humanized antibody was applied to the flow cell onto which anti-human IgG antibody was immobilized, at a flow rate of 10 μL/min for 2 minutes.
Subsequently, human BMP9 recombinant protein (manufactured by R&D systems, Cat#3209-BP) was subjected to 2-fold serial dilution starting from […] to give 5 concentrations, and applied at a flow rate of 10 μL/min, and association was monitored over 3 minutes and dissociation over 3 minutes at a flow of 10 μL/min. The sensorgram thus obtained was analyzed by BiaEvaluation Software (manufactured by GE Healthcare bioscience) to calculate the rate constant of each antibody.

Binder | Kd [pM] | koff [s⁻¹] | kon [M⁻¹ s⁻¹]
10D5-2-3 antibody-humanized antibody HV3LV2 (antibody, V domains shown, Expressed from pKANTEX93) VH: EVQLVESGGGLVQPGGSLRLSCAASGFTFSNYWMNWVRQAPGKGLEWVAHIRLKSDNYATHYAESVRGRFTISRDDSKNSLYLQMNSLKTEDTAVYYCTGGSNYVFAFWGQGTLVTVSS VL: DIVMTQSPDSLAVSLGERATINCRASESVDNYGISFMNWFQQKPGQPPKLLIYAASNQGSGVPDRFSGSGSGTDFTLTISSLQAEDVAVYFCQQSKEVPWTFGQGTKLEIK | 11.6 | 0.000596 | 5.12e+07
10D5-2-3 antibody-humanized antibody HV7aLV0 (antibody, V domains shown, Expressed from pKANTEX93) VH: EVQLVESRGGLVQPGGSMRLSCAASGFTFSNYWMNWVRQAPGKGLEWVAHIRLKSDNYATHYAESVRGRFTISRDDSKSSLYLQMNSLKTEDTGVYYCTGGSNYVFAFWGQGTLVTVSS VL: DIVMTQSPDSLAVSLGERATINCRASESVDNYGISFMNWYQQKPGQPPKLLIYAASNQGSGVPDRFSGSGSGTDFTLTISSLQAEDVAVYYCQQSKEVPWTFGQGTKLEIK | 9.69 | 0.00142 | 1.47e+08
10D5-2-3 antibody-humanized antibody HV3LV3 (antibody, V domains shown, Expressed from pKANTEX93) VH: EVQLVESGGGLVQPGGSLRLSCAASGFTFSNYWMNWVRQAPGKGLEWVAHIRLKSDNYATHYAESVRGRFTISRDDSKNSLYLQMNSLKTEDTAVYYCTGGSNYVFAFWGQGTLVTVSS VL: DIVMTQSPDSLAVSLGERATINCRASESVDNYGISFMNWFQQKPGQPPKLLIYAASNQGSGVPDRFSGSGSGTDFTLTISPLQAEDVAVYFCQQSKEVPWTFGQGTKLEIK | 9.49 | 0.000516 | 5.43e+07
10D5-2-3 antibody-humanized antibody HV4bLV2 (antibody, V domains shown, Expressed from pKANTEX93) VH: EVQLVESGGGLVQPGGSLRLSCAASGFTFSNYWMNWVRQAPGKGLEWVAHIRLKSDNYATHYAESVRGRFTISRDDSKNSLYLQMNSLKTEDTAIYYCTGGSNYVFAFWGQGTLVTVSS VL: DIVMTQSPDSLAVSLGERATINCRASESVDNYGISFMNWFQQKPGQPPKLLIYAASNQGSGVPDRFSGSGSGTDFTLTISSLQAEDVAVYFCQQSKEVPWTFGQGTKLEIK | 10.9 | 0.000588 | 5.39e+07
10D5-2-3 antibody-humanized antibody HV9LV2 (antibody, V domains shown, Expressed from pKANTEX93) VH: EVQLVESRGGLVQPGGSMRLSCAASGFTFSNYWMNWVRQAPGKGLEWVAHIRLKSDNYATHYAESVRGRFTISRDDSKSSVYLQMNSLKTEDTGIYYCTGGSNYVFAFWGQGTLVTVSS VL: DIVMTQSPDSLAVSLGERATINCRASESVDNYGISFMNWFQQKPGQPPKLLIYAASNQGSGVPDRFSGSGSGTDFTLTISSLQAEDVAVYFCQQSKEVPWTFGQGTKLEIK | 3.89 | 0.000347 | 8.91e+07
10D5-2-3 antibody-humanized antibody HV4bLV0 (antibody, V domains shown, Expressed from pKANTEX93) VH: EVQLVESGGGLVQPGGSLRLSCAASGFTFSNYWMNWVRQAPGKGLEWVAHIRLKSDNYATHYAESVRGRFTISRDDSKNSLYLQMNSLKTEDTAIYYCTGGSNYVFAFWGQGTLVTVSS VL: DIVMTQSPDSLAVSLGERATINCRASESVDNYGISFMNWYQQKPGQPPKLLIYAASNQGSGVPDRFSGSGSGTDFTLTISSLQAEDVAVYYCQQSKEVPWTFGQGTKLEIK | 11.4 | 0.00164 | 1.44e+08
10D5-2-3 antibody-humanized antibody HV9LV0 (antibody, V domains shown, Expressed from pKANTEX93) VH: EVQLVESRGGLVQPGGSMRLSCAASGFTFSNYWMNWVRQAPGKGLEWVAHIRLKSDNYATHYAESVRGRFTISRDDSKSSVYLQMNSLKTEDTGIYYCTGGSNYVFAFWGQGTLVTVSS VL: DIVMTQSPDSLAVSLGERATINCRASESVDNYGISFMNWYQQKPGQPPKLLIYAASNQGSGVPDRFSGSGSGTDFTLTISSLQAEDVAVYYCQQSKEVPWTFGQGTKLEIK | 6.45 | 0.000859 | 1.33e+08
10D5-2-3 antibody-humanized antibody HV9LV6 (antibody, V domains shown, Expressed from pKANTEX93) VH: EVQLVESRGGLVQPGGSMRLSCAASGFTFSNYWMNWVRQAPGKGLEWVAHIRLKSDNYATHYAESVRGRFTISRDDSKSSVYLQMNSLKTEDTGIYYCTGGSNYVFAFWGQGTLVTVSS VL: not shown | 5.13 | 0.000325 | 6.34e+07
10D5-2-3 antibody-humanized antibody HV3LV6 (antibody, V domains shown, Expressed from pKANTEX93) VH: EVQLVESGGGLVQPGGSLRLSCAASGFTFSNYWMNWVRQAPGKGLEWVAHIRLKSDNYATHYAESVRGRFTISRDDSKNSLYLQMNSLKTEDTAVYYCTGGSNYVFAFWGQGTLVTVSS VL: not shown | 11.9 | 0.000555 | 4.67e+07
10D5-2-3 antibody-humanized antibody HV9LV3 (antibody, V domains shown, Expressed from pKANTEX93) VH: EVQLVESRGGLVQPGGSMRLSCAASGFTFSNYWMNWVRQAPGKGLEWVAHIRLKSDNYATHYAESVRGRFTISRDDSKSSVYLQMNSLKTEDTGIYYCTGGSNYVFAFWGQGTLVTVSS VL: DIVMTQSPDSLAVSLGERATINCRASESVDNYGISFMNWFQQKPGQPPKLLIYAASNQGSGVPDRFSGSGSGTDFTLTISPLQAEDVAVYFCQQSKEVPWTFGQGTKLEIK | 3.52 | 0.000279 | 7.91e+07
10D5-2-3 antibody-humanized antibody HV4bLV3 (antibody, V domains shown, Expressed from pKANTEX93) VH: EVQLVESGGGLVQPGGSLRLSCAASGFTFSNYWMNWVRQAPGKGLEWVAHIRLKSDNYATHYAESVRGRFTISRDDSKNSLYLQMNSLKTEDTAIYYCTGGSNYVFAFWGQGTLVTVSS VL: DIVMTQSPDSLAVSLGERATINCRASESVDNYGISFMNWFQQKPGQPPKLLIYAASNQGSGVPDRFSGSGSGTDFTLTISPLQAEDVAVYFCQQSKEVPWTFGQGTKLEIK | 10.1 | 0.000556 | 5.5e+07
10D5-2-3 antibody-humanized antibody HV7aLV2 (antibody, V domains shown, Expressed from pKANTEX93) VH: EVQLVESRGGLVQPGGSMRLSCAASGFTFSNYWMNWVRQAPGKGLEWVAHIRLKSDNYATHYAESVRGRFTISRDDSKSSLYLQMNSLKTEDTGVYYCTGGSNYVFAFWGQGTLVTVSS VL: DIVMTQSPDSLAVSLGERATINCRASESVDNYGISFMNWFQQKPGQPPKLLIYAASNQGSGVPDRFSGSGSGTDFTLTISSLQAEDVAVYFCQQSKEVPWTFGQGTKLEIK | 9.57 | 0.000477 | 4.98e+07
10D5-2-3 antibody-humanized antibody HV3LV0 (antibody, V domains shown, Expressed from pKANTEX93) VH: EVQLVESGGGLVQPGGSLRLSCAASGFTFSNYWMNWVRQAPGKGLEWVAHIRLKSDNYATHYAESVRGRFTISRDDSKNSLYLQMNSLKTEDTAVYYCTGGSNYVFAFWGQGTLVTVSS VL: DIVMTQSPDSLAVSLGERATINCRASESVDNYGISFMNWYQQKPGQPPKLLIYAASNQGSGVPDRFSGSGSGTDFTLTISSLQAEDVAVYYCQQSKEVPWTFGQGTKLEIK | 11.4 | 0.00172 | 1.51e+08
10D5-2-3 antibody-humanized antibody HV4aLV0 (antibody, V domains shown, Expressed from pKANTEX93) VH: EVQLVESRGGLVQPGGSMRLSCAASGFTFSNYWMNWVRQAPGKGLEWVGHIRLKSDNYATHYAESVRGRFTISRDDSKSSLYLQMNSLKTEDTAVYYCAGGSNYVFAFWGQGTLVTVSS VL: DIVMTQSPDSLAVSLGERATINCRASESVDNYGISFMNWYQQKPGQPPKLLIYAASNQGSGVPDRFSGSGSGTDFTLTISSLQAEDVAVYYCQQSKEVPWTFGQGTKLEIK | 9.24 | 0.00145 | 1.57e+08
10D5-2-3 antibody-humanized antibody HV7bLV2 (antibody, V domains shown, Expressed from pKANTEX93) VH: EVQLVESRGGLVQPGGSMRLSCAASGFTFSNYWMNWVRQAPGKGLEWVAHIRLKSDNYATHYAESVRGRFTISRDDSKNSVYLQMNSLKTEDTGVYYCTGGSNYVFAFWGQGTLVTVSS VL: DIVMTQSPDSLAVSLGERATINCRASESVDNYGISFMNWFQQKPGQPPKLLIYAASNQGSGVPDRFSGSGSGTDFTLTISSLQAEDVAVYFCQQSKEVPWTFGQGTKLEIK | 4.91 | 0.000307 | 6.25e+07
10D5-2-3 antibody-humanized antibody HV9LV4 (antibody, V domains shown, Expressed from pKANTEX93) VH: EVQLVESRGGLVQPGGSMRLSCAASGFTFSNYWMNWVRQAPGKGLEWVAHIRLKSDNYATHYAESVRGRFTISRDDSKSSVYLQMNSLKTEDTGIYYCTGGSNYVFAFWGQGTLVTVSS VL: DIVLTQSPDSLAVSLGERATINCRASESVDNYGISFMNWYQQKPGQPPKLLIYAASNQGSGVPDRFSGSGSGTDFTLTISPMQAEDVAMYYCQQSKEVPWTFGQGTKLEIK | 6.38 | 0.000739 | 1.16e+08
10D5-2-3 antibody-humanized antibody HV4bLV6 (antibody, V domains shown, Expressed from pKANTEX93) VH: EVQLVESGGGLVQPGGSLRLSCAASGFTFSNYWMNWVRQAPGKGLEWVAHIRLKSDNYATHYAESVRGRFTISRDDSKNSLYLQMNSLKTEDTAIYYCTGGSNYVFAFWGQGTLVTVSS VL: not shown | 11.9 | 0.000531 | 4.46e+07
10D5-2-3 chimeric antibody (c10D5-2-3 antibody) (antibody, V domains shown, Human chimeric antibody; The V regions were cloned into the humanized antibody expression vector pKANTEX93) VH: EVKLEESRGGLVQPGGSMKLSCVASGFTFSNYWMNWVRQSPEKGLEWVAHIRLKSDNYATHYAESVRGRFTISRDDSKSSVFLQMNNLRAEDTGIYYCTGGSNYVFAFWGQGTLVTVSA VL: not shown | 4.52 | 0.00024 | 5.32e+07

From patent publication US20140056902A1 (Kyowa Kirin, published 2014)
